Results as given in PMC3706368.

Target: V5-tagged cdN protein (human) (UniProt Q8TCD5)
UniProt Q8TCD5, sequence (Q8TCD5 whole entry): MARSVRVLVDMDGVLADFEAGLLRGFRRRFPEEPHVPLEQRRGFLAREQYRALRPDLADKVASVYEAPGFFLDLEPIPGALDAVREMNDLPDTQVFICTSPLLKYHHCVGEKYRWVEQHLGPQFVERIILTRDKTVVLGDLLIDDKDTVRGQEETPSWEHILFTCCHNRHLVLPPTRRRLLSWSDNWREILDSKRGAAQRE

myc-tagged full-length NS3/4A protein (natural protein)
5'(3')-deoxyribonucleotidase activity (dephosphorylation of dUMP) in lysates of HuH7 cells with stable HCV NS3/4A expression, compared with cells with stable EGFP expression: 70%
